Results reported in article PMC12153317.

Biological target: specific HAs not engaged in ELISA (soluble HA ectodomains) (influenza virus)
Experiment: ELISA

CR8071 gave a Kd of 0.35 nM.
